The text below walks through data of PMC2855102.

Experiment [1] addresses actin (thin filament, F-actin) of mouse left ventricular myocardium (mouse (endogenous in C57/BL6 left ventricle)) (UniProt P68033).
Experiment [2] has the same target. This is another data set of the same source.
The target is the same in experiment [3]. This is another data set of the same source.
The target is the same in experiment [4]. This is another data set of the same source.
Experiment [5] addresses actin (thin filament, F-actin) of bovine myocardium (bovine (endogenous in left ventricle and left atrium)) (UniProt Q3ZC07).
For experiment [6] the target is unchanged. The source holds these as a separate data set.
For experiment [7] the target is unchanged. This is another data set of the same source.

In turn, “titin (connectin) of mouse left ventricular myocardium, predominately the N2B isoform (natural protein)” had a reduction of total passive tension during stretch of skinned MLV after thin filament (actin) extraction with gelsolin, at SL 2.25 μm in experiment [1] of 22%. In addition, the reduction of titin-based passive tension of skinned MLV after thin filament (actin) extraction with gelsolin, at SL 2.25 μm (calculated from total tension with titin's fractional contribution) in experiment [2] was 44%. In addition, in experiment [3], the decrease of hysteresis (area of the force-length loop of stretch-release cycles) of skinned MLV after actin extraction with gelsolin, at SL 2.25 μm was found to be 33%. In addition, the decrease of passive stiffness/tension during stretch of skinned MLV with both S100A1 (1 μg/μL, Sigma) and calcium (pCa 6.8), relative to pCa 9.0; stretch speeds 0.1 and 2.0 length/sec in experiment [4] is less than 20%.
Regarding “titin of bovine left atrial myocardium, mainly the N2BA isoform (natural protein)”, in experiment [5], the reduction of total passive tension during stretch of skinned BLA after thin filament (actin) extraction with gelsolin, at SL 2.25 μm is 10%. Besides, the reduction of titin-based passive tension of skinned BLA after thin filament (actin) extraction with gelsolin, at SL 2.25 μm (calculated from total tension with titin's fractional contribution) in experiment [6] is 12%. The substance also yielded a decrease of hysteresis (area of the force-length loop of stretch-release cycles) of skinned BLA after actin extraction with gelsolin, at SL 2.25 μm in experiment [7] of 35%.
Take “titin of bovine left ventricular myocardium, a mixture of the N2B and N2BA isoforms (natural protein)”: the reduction of total passive tension during stretch of skinned BLV after thin filament (actin) extraction with gelsolin, at SL 2.25 μm in experiment [5] was 17%. Besides, the reduction of titin-based passive tension of skinned BLV after thin filament (actin) extraction with gelsolin, at SL 2.25 μm (calculated from total tension with titin's fractional contribution) in experiment [6] is 20%. Besides, the decrease of hysteresis (area of the force-length loop of stretch-release cycles) of skinned BLV after actin extraction with gelsolin, at SL 2.25 μm in experiment [7] was determined as 52%.
